Assay results from patent US20130060011A1 (published 2013).

B1: (scFv)2 (antiMCSP/anti huCD3e) (bispecific antibody)
scFv: DIVLTQSPSSLSASLGDRVTISCSASQGIRNYLNWYQQRPDGTVKLLIYYTSSLHSGVPSRFSGSGSGTDYSLTISNLEPEDIATYYCQQYSKLPWTFGGGTKLEIKGGGGSGGGGSGGGGSEVQLQESGPGLVKPSQSLSLTCSVTGYSITSGYYWNWIRQFPGNKLEWMGYITYDGSNNYNPSLKNRISITRDTSKNQFFLKLNSVTTEDTATYYCADFDYWGQGTTLTVSSGGGGSEVQLVESGGGLVQPGGSLRLSCAASGYSFTGYTMNWVRQAPGKGLEWVALINPYKGVSTYNQKFKDRFTISVDKSKNTAYLQMNSLRAEDTAVYYCARSGYYGDSDWYFDVWGQGTLVTVSSVEGGSGGSGGSGGSGGVDDIQMTQSPSSLSASVGDRVTITCRASQDIRNYLNWYQQKPGKAPKLLIYYTSRLESGVPSRFSGSGSGTDYTLTISSLQPEDFATYYCQQGNTLPWTFGQGTKVEIKHHHHHH
B2: hu Fab (MCSP)-Crossfab (CD3) (bispecific antibody)
heavy: EVQLQESGPGLVKPSQSLSLTCSVTGYSITSGYYWNWIRQFPGNKLEWMGYITYDGSNNYNPSLKNRISITRDTSKNQFFLKLNSVTTEDTATYYCADFDYWGQGTTLTVSSASTKGPSVFPLAPSSKSTSGGTAALGCLVKDYFPEPVTVSWNSGALTSGVHTFPAVLQSSGLYSLSSVVTVPSSSLGTQTYICNVNHKPSNTKVDKKVEPKSCDGGGGSGGGGSDIQMTQSPSSLSASVGDRVTITCRASQDIRNYLNWYQQKPGKAPKLLIYYTSRLESGVPSRFSGSGSGTDYTLTISSLQPEDFATYYCQQGNTLPWTFGQGTKVEIKSSASTKGPSVFPLAPSSKSTSGGTAALGCLVKDYFPEPVTVSWNSGALTSGVHTFPAVLQSSGLYSLSSVVTVPSSSLGTQTYICNVNHKPSNTKVDKKVEPKSC
light: DIVLTQSPSSLSASLGDRVTISCSASQGIRNYLNWYQQRPDGTVKLLIYYTSSLHSGVPSRFSGSGSGTDYSLTISNLEPEDIATYYCQQYSKLPWTFGGGTKLEIKRTVAAPSVFIFPPSDEQLKSGTASVVCLLNNFYPREAKVQWKVDNALQSGNSQESVTEQDSKDSTYSLSSTLTLSKADYEKHKVYACEVTHQGLSSPVTKSFNRGEC
chain: EVQLVESGGGLVQPGGSLRLSCAASGYSFTGYTMNWVRQAPGKGLEWVALINPYKGVSTYNQKFKDRFTISVDKSKNTAYLQMNSLRAEDTAVYYCARSGYYGDSDWYFDVWGQGTLVTVSSASVAAPSVFIFPPSDEQLKSGTASVVCLLNNFYPREAKVQWKVDNALQSGNSQESVTEQDSKDSTYSLSSTLTLSKADYEKHKVYACEVTHQGLSSPVTKSFNRGEC

Experiments:
human CD3 = human CD3 (human, UniProt P07766 23-207); experiment: cell-based or functional assay
human CD3, sequence (P07766 23-207): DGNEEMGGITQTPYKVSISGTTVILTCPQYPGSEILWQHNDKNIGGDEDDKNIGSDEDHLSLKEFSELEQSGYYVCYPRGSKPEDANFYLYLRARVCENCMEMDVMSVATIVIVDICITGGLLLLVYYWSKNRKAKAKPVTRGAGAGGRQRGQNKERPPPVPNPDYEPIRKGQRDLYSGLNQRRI

human MCSP = human MCSP (human, UniProt Q6UVK1 30-2322); experiment: cell-based or functional assay
human MCSP, sequence (Q6UVK1 30-2322): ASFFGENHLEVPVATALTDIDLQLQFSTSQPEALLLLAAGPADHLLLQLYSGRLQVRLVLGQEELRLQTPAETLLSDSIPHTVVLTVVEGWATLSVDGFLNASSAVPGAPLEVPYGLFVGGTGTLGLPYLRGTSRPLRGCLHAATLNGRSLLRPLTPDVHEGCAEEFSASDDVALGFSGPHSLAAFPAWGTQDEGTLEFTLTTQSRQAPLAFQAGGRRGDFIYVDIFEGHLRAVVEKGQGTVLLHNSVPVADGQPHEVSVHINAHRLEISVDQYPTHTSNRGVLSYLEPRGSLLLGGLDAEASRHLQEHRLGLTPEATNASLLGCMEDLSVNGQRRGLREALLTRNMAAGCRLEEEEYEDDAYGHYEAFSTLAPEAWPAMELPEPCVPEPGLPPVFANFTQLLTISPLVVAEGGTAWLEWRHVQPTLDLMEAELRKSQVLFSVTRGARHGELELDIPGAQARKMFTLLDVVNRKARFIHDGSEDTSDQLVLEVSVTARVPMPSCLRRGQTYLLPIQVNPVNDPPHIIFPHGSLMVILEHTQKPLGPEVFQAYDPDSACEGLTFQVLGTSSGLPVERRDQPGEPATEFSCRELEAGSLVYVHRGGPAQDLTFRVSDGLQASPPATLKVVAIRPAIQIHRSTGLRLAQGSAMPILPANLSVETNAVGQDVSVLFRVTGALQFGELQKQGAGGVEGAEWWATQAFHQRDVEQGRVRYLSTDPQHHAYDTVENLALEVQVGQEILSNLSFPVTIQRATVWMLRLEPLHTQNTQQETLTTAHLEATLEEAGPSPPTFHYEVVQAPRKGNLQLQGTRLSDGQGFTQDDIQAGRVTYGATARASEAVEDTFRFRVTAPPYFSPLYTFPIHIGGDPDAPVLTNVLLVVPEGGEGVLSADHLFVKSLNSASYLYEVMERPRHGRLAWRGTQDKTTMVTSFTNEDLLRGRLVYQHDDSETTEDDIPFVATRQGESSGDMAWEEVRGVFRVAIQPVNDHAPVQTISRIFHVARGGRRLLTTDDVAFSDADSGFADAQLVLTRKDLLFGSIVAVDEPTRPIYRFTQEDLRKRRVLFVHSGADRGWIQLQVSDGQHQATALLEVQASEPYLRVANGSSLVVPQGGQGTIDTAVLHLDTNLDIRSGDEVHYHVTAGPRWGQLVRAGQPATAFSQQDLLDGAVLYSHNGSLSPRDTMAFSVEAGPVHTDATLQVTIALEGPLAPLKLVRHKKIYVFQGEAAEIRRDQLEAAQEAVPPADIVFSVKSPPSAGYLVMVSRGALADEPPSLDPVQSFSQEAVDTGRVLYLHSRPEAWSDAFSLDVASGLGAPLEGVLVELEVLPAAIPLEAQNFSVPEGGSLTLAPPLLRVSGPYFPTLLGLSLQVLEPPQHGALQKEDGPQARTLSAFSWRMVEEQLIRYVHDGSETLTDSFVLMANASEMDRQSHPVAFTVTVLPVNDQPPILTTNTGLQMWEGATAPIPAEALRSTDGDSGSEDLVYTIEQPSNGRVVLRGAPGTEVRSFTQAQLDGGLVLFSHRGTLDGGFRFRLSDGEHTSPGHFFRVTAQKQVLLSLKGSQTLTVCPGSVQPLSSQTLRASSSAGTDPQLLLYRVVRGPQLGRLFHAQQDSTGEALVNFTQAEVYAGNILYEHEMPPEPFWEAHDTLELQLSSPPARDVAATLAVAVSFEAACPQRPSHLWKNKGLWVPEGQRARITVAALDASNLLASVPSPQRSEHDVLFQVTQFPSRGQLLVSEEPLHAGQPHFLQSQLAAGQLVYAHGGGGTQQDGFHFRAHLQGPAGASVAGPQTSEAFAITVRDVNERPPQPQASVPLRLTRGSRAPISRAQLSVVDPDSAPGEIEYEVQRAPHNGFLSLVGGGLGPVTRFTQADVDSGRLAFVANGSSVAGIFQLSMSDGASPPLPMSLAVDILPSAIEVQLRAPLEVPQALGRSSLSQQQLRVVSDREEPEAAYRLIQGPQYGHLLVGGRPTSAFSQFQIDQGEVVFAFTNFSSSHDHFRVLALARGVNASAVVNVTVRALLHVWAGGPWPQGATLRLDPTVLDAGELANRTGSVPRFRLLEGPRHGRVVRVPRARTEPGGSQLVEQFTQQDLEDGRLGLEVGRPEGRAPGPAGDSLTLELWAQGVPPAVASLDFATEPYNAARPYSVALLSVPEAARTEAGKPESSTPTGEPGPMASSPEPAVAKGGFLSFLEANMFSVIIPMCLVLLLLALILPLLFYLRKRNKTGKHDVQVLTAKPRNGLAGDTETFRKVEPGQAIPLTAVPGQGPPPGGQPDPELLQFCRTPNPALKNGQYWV

| Binder | Killing (as measured by LDH release) of MV-3 tumor cells upon co-culture with human PBMCs (E:T ratio=10:1), 24 hours; EC50 (human CD3) [nM] | Killing (as measured by LDH release) of MV-3 tumor cells upon co-culture with human PBMCs (E:T ratio=10:1), 24 hours; EC50 (human MCSP) [nM] |
| --- | --- | --- |
| B1 | 0.057 | 0.057 |
| B2 | 0.0254 | 0.0254 |
